Measurements taken from patent publication US20180073013A1 (published 2018).

Key:
Assay in all cases: cytokine release
[1] = target: T1, HPV16 oncoprotein E5 peptide on HLA-B*15:01 (human)
T1 peptide: WITAASAFRCFIVY

[2] = target: T2, HPV16 oncoprotein E5 peptide on HLA-B*15:01 (human)
T2 peptide: ITAASAFRCFIVY

[3] = target: T3, HPV16 oncoprotein E5 peptide on HLA-B*15:01 (human)
T3 peptide: WITAASAF

[4] = target: T4, HPV16 oncoprotein E5 peptide on HLA-B*15:01 (human)
T4 peptide: AASAFRCFIVY

[5] = target: T5, HPV16 oncoprotein E5 peptide on HLA-B*15:01 (human)
T5 peptide: LLLWITAASAF

[6] = target: T6, HPV16 oncoprotein E5 peptide on HLA-B*15:01 (human)
T6 peptide: TAASAFRCFIVY

[7] = target: T7, HPV16 oncoprotein E5 peptide on HLA-B*15:01 (human)
T7 peptide: LLWITAASAF

[8] = target: T8, HPV16 oncoprotein E5 peptide on HLA-B*15:01 (human)
T8 peptide: ASAFRCFIVY

B1: HPV16 E5-specific TCR (TRAV17 + TRBV6-5) (TCR, V domains shown)
Valpha: SQQGEEDPQALSIQEGENATMNCSYKTSINNLQWYRQNSGRGLVHLILIRSNEREKHSGRLRVTLDTSKKSSSLLITASRAADTASYFCAESEYGNKLVFGAGTILRVKS
Vbeta: NAGVTQTPKFQVLKTGQSMTLQCAQDMNHEYMSWYRQDPGMGLRLIHYSVGAGITDQGEVPNGYNVSRSTTEDFPLRLLSAAPSQTSVYFCASSYRQQETQYFGPGTRLLVL
Question: Does B1 bind [1]?
Answer: recognises

Question: Does B1 bind [2]?
Answer: recognises

Question: Does B1 bind [3]?
Answer: no recognition

Question: Does B1 bind [4]?
Answer: recognises

Question: Does B1 bind [5]?
Answer: no recognition

Question: Does B1 bind [6]?
Answer: recognises

Question: Does B1 bind [7]?
Answer: no recognition

Question: Does B1 bind [8]?
Answer: recognises
